# Data taken from the RNAGym collection of RNA variant scans (doi:10.7554/elife.90254).
# B1: LINE1-full (parent)
# chain: UACGUAGGUGGUUUUCCCCUGAUAGUGCUAAGGGGGCCUGGAAGUUUGGACUGGGCAGAGCUCAACACAGCGUGGCAAAGUGGCUGUGGCUAGACUGCCUCUCUGGAUUCCUCGUCACUCAGCAGGGCAUCUCUGAGAGAAAUGCC
# Variants of: B1
# Assay: self-cleavage, relative activity (ratio to wild type); higher = more cleavage; in vitro, sequencing; the parent is a self-cleaving ribozyme
row,Variant,self-cleavage
1,A129G G144A,1.66
2,A129G G144U,1.67
3,A124C,1.56
4,A124G,0.98
5,A124U,1.4
6,G127A U143C,2.07
7,G126A U134C,1.58
8,A129G A138G,1.44
9,G127U A129G,0.75
10,U119A A129U,1.37
11,G126C G137A,1.45
12,A117U A142G,1.43
13,G125U U134G,1.26
14,G125U U134A,1.87
15,C131U A141G,1.51
16,A121G U130C,1.14
17,A121G U130A,1.25
18,C128U U143C,1.26
19,U130C A142C,1.76
20,U119C C145U,1.25
21,A124U C128U,1.21
22,U130C U143A,1.51
23,U130C U143C,1.53
24,U130G A140G,1.1

row,Variant,self-cleavage
1,U132C A142C,1.51
2,U132C A142U,1.2
3,U130A A140U,1.24
4,U130A A140G,1.27
5,A117G U143A,0.83
6,A117G U143C,1.45
7,G122A A140U,1.47
8,G122A A140G,0.53
9,A129G A141G,1.6
10,A129C A136G,1.61
11,A117U A124C,1.77
12,A117U A124U,1.26
13,G125C A138G,1.9
14,A124U U134C,1.51
15,C120U A124G,1.26
16,G127C C145U,1.01
17,A121G G125A,1.29
18,A121U G126A,0.83
19,U119A U130C,1.85
20,G126C A140G,2.25
21,C123G C133A,1.46
22,C128U A141G,1.37
23,G126A G127U,1.44
24,A124G U132C,0.82

row,Variant,self-cleavage
1,A124G U132A,0.87
2,C123G U132C,1.43
3,U130C U132C,1.29
4,C128U A138G,1.44
5,A124C A138C,1.86
6,A121U U143G,2
7,U119C A140G,1.88
8,U119G U134C,1.76
9,U119G U143A,0.95
10,A124C A129G,0.66
11,C120A U134C,1.65
12,U130A A142C,0.79
13,U130G,1.32
14,U130C,1.52
15,U130A,1.42
16,A121G,1.56
17,A121U,1.34
18,A121C,1.51
19,U132C C146U,1.51
20,A121U U132A,1.36
21,U132C A138U,1.48
22,U132C A138G,1.6
23,A117U U132G,1.99
24,A117U U132C,1.37

row,Variant,self-cleavage
1,A117U G122U,1.72
2,U119A A141U,1.29
3,A121G A124G,0.97
4,A129G A140G,1.47
5,A121U A138G,1.56
6,A121U A138C,1.56
7,C128A A141G,1.01
8,U119G A141G,1.57
9,G125A U132C,1.55
10,A124G G125U,1.27
11,U132C G144U,1.43
12,G122U U130C,1.21
13,U119G A138G,2.33
14,U130C A136U,1.63
15,A117U A138G,1.52
16,A117U A138U,1.16
17,A121G A138U,1.59
18,A121G A138C,1.71
19,A121G A138G,1.86
20,C123G A124G,0.74
21,C123U G125C,1.1
22,C128G,0.98
23,C128A,0.7
24,C128U,1.39

row,Variant,self-cleavage
1,U119C G125U,2.39
2,U119C C128U,1.13
3,G126A A140U,1.67
4,U119C A138G,1.84
5,C128A U134A,0.3
6,C123U A138G,1.91
7,U119A U134A,1.42
8,G122A U134C,1.43
9,A129G U143C,1.59
10,A129G U143A,1.77
11,A121C A136G,1.72
12,G122A U130A,2.13
13,G122A U130C,1.91
14,C118A,1.11
15,C118G,1.27
16,C118U,1.32
17,G122A A142G,0.42
18,U119C G135A,2.34
19,U119C A142G,1.33
20,U119C A142U,1.95
21,A121G G122A,1.46
22,G126A A138U,1.33
23,G126A A136U,1.41
24,A121C G127A,1.8

row,Variant,self-cleavage
1,A124C U130C,1.84
2,U130A A136U,1.18
3,U130A A136G,1.46
4,A129U A138U,1.47
5,A129U A138G,0.93
6,A117U C131A,1.27
7,C118U U134C,1.13
8,U132A U143A,2
9,U132A U143C,1.82
10,G122C A140G,1.36
11,A124G C128A,0.46
12,A124G C128U,0.53
13,C123A A141G,1.35
14,U132G,1.52
15,U132C,1.35
16,U132A,1.32
17,C118U U143A,1.31
18,A129U C131U,1.78
19,A124G C145A,1.22
20,C123U U132A,1.13
21,G122A U143C,1.11
22,A124U C145U,1.27
23,A124G G126A,1.22
24,A124G A138G,1.36

row,Variant,self-cleavage
1,G127A A140G,0.9
2,U119C U134A,1.92
3,C131A A142G,0.98
4,G127C A138G,1.31
5,U119C A121U,1.48
6,A121G U143A,0.91
7,A121G U143G,0.5
8,U132C G139U,2.66
9,A121U A142G,1.4
10,A121U A142U,1.03
11,C120G A129G,1.23
12,A117U C128A,0.99
13,A117U C128U,0.86
14,A129G G139A,1.43
15,G125U,1.23
16,G125C,1.59
17,G125A,1.19
18,U119C G144A,1.26
19,G127U A141G,1.45
20,A121U A124C,1.14
21,A117U G126C,1.47
22,A124G A136U,1.3
23,A121G C128U,1.6
24,G122C A136U,1.96

row,Variant,self-cleavage
1,U119C U130C,1.72
2,U119C U130A,1.93
3,G125U U132C,1.47
4,U130A C133U,2.3
5,C118U A138U,0.2
6,C118U A138G,1.18
7,A124G A140G,0.24
8,A121G G144A,1.91
9,A124U A140G,1.5
10,U119A G122C,1.65
11,C131G A138G,2.49
12,G126A A129U,2.47
13,A121G G127A,1.74
14,A129U A136G,1
15,A129U A136U,1.42
16,C123G A140U,1.27
17,G126U A129G,1.61
18,G126U A129U,0.81
19,C123A A140G,1.42
20,C120U G127A,1.48
21,A129C A138U,0.57
22,A129G U132C,1.58
23,U130C A141C,2.91
24,U130C C145U,1.46

row,Variant,self-cleavage
1,A121G A142G,1.48
2,A121G C146U,1.39
3,C120U A141G,1.32
4,C131U U134A,1.65
5,A121G U134C,1.88
6,A121G U134G,1.58
7,A117G U134A,1.37
8,C128U A140G,0.89
9,C128U A140U,1.36
10,G125A A129C,1.36
11,A117G U132A,0.59
12,A117G U132C,1.8
13,U119C A136G,1.98
14,U119C A136U,1.87
15,G126U U134A,0.84
16,G126U U134C,1.49
17,A121C A129U,1.9
18,A121C A129G,1.23
19,A129G A136G,1.7
20,C123U A136G,1.49
21,G127A U134G,1.1
22,U132A A141G,1.58
23,G126A C133A,1.7
24,A124G G127A,1.15

row,Variant,self-cleavage
1,U130C G144A,1.57
2,U119C A129U,1.82
3,C118U C131U,1.66
4,A124G C133A,0.81
5,A121G A140G,1.84
6,A117U A129G,1.69
7,G126C,1.19
8,G126A,1.31
9,G126U,1.18
10,U119C C146U,1.68
11,C120U A142G,1.59
12,C120U A142U,1.52
13,A121G U132C,1.58
14,U119A A121U,1.67
15,G125U A136U,1.8
16,C131A U134C,1.53
17,A121U U134C,1.35
18,C120A G139U,1.59
19,G127A C146U,1.43
20,A117U A136G,1.51
21,A117U A136U,1.67
22,U119A G125U,1.07
23,G125A G144A,1.33
24,U130C C133A,1.61

row,Variant,self-cleavage
1,A121G A129U,1.59
2,A121G A129G,1.58
3,A129U A140G,1.53
4,U119C U143C,1.49
5,C123U U130A,1.72
6,C123U U130C,1.74
7,G122U C123U,0.8
8,A121G A136G,1.65
9,G127A G139C,1.41
10,G122A A138G,0.78
11,A124U C133A,1.59
12,C131A A140G,1.94
13,C123A U134C,1.04
14,A124G A142U,0.94
15,A124G A142C,0.58
16,A129G U134A,0.89
17,A129G U134C,1.43
18,A121U A129U,1.41
19,A121U A141G,1.24
20,U132A A136G,1.79
21,A124U G127A,0.9
22,A121C C146U,1.77
23,G125C U134C,1.58
24,C123G,1.36

row,Variant,self-cleavage
1,C123A,1.19
2,C123U,1.16
3,A121C U134A,0.84
4,U119A G126A,1.3
5,A124U A129U,0.9
6,G126A A141U,0.67
7,G126A A141G,1.34
8,U132A A140U,1.11
9,U132C A140U,1.43
10,U132C A140G,1.65
11,A129U G144A,1.51
12,A129U G139A,1.53
13,A121G G126A,1.24
14,G127C U143C,1.61
15,A121U C131U,0.58
16,G122C U134C,1.68
17,A121G A141G,1.65
18,A124C A142G,0.53
19,A117U,1.46
20,A124U U132C,1.43
21,A121U G122A,0.27
22,U119A A136U,1.3
23,A117U G135U,1.68
24,A117U G135A,1.79

row,Variant,self-cleavage
1,A124G G139U,1.91
2,A124G U134A,0.39
3,A124G U134C,0.89
4,A117U U143C,1.43
5,C131U A138U,1.27
6,C120U A129G,1.84
7,A121U G125A,1.23
8,A121U G125C,1.28
9,A117U U134A,1.54
10,A117U U134C,1.52
11,U119A U143G,0.91
12,U119A U143C,1.93
13,A124U A141G,1.36
14,G127U U130C,1.77
15,G127A A138G,1.36
16,A117U U119C,1.73
17,U130C U134G,0.54
18,U130C U134C,1.51
19,A129C A140U,1.75
20,A129C A140G,1.67
21,A129C A140C,1.29
22,A129G U130C,1.69
23,A129G U130A,1.19
24,G122U G125C,2.14

row,Variant,self-cleavage
1,G126U U143C,1.33
2,G125A A140G,1.32
3,U132A A142G,1.41
4,U132C A141G,1.46
5,A129C U130A,1.47
6,C120U C123A,1.78
7,C120A A142G,0.91
8,A129C U143C,1.74
9,A121G C145A,1.6
10,U132A A138G,1.39
11,C128U U130C,1.35
12,G126A U143C,0.77
13,G126A U143A,1.49
14,U119C A124U,1.58
15,U119C A124G,1.62
16,A129U A142G,1.43
17,U119C A141G,1.87
18,A117G G137A,1.66
19,C131A,1.48
20,C131U,1.41
21,C131G,1.54
22,U119A A142G,1.48
